The source of these data is paper PMC10031466 (The Journal of Biological Chemistry, 2023).

For orientation: stoichiometry N means the number of molecules, sites or subunits per partner or assembly.

This data set deals with the molecule itself. Kind of data set: crystal structure; microbatch crystallization of His-SUMO tagged P. shigelloides NagK (5 mg/ml), Morpheus I screen with matrix microseeding; apo structure PDB 7P7I, 2 protein monomers in the a.u.

B1: N-acetylglucosamine kinase (NagK) from Plesiomonas shigelloides (enzyme)
chain: MYYGFDIGGTKIEFGAFDADLVRVARERVATPTESYAAFLDAIVTLVNNADAEFGVKGTVGIGIPGIADVETGKLLTSNIPAAMGHTLQRDLEERLQRPVKIENDANCFALSEAWDEDLRGEPSVLGLILGTGVGGGLIFNGKVHSGRANIAGEIGHTRLPYDALKLLGMENAPIFPCGCKNSGCIDNYLSGRGFEQLYDHYFSEKLSAPEIIAHYEQGERRAVQHVERFMELLAICLANIFTCLDPHVVVLGGGLSNFELIYQELPKRLPAHLLHVAKLPKIIKARHGDAGGVRGAAFLNL
notes: N-acetylglucosamine kinase NagK of Plesiomonas shigelloides, codon-optimized nagK gene in pOPINS3C; also called PsNagK; P. shigelloides NagK; source: E. coli BL21 (DE3), purified (HisTrap, Superdex 200 size exclusion); not shown: polyhistidine, N-terminal, kept; SUMO, N-terminal, kept
Take B1: the “stoichiometry N” value was 2.
